From patent US20250122298A1 (OSSIANIX, published 2025)
Positions count from the first letter of the chain named. Names may count otherwise. Values belong to the binder of their own block, whether it stands above or below them.

Tests used:
[1] = target: T1, recombinant cynomolgus TfR-1 (cynomolgus, UniProt H9EXL1 89-760 (rhesus entry)); test: SPR Biacore T200, multi-cycle kinetics, 1:1 model
T1 construct: also called cTfR-1; cTfR1

recombinant human TfR-1 [2] = target: T2, recombinant human TfR-1 (human, UniProt P02786 89-760, limits assumed); test: ELISA, plate-coated recombinant hTfR1, anti-hFc HRP detection
T2 construct: also called hTfR-1; hTfR1
T2 sequence (P02786 89-760 limits assumed): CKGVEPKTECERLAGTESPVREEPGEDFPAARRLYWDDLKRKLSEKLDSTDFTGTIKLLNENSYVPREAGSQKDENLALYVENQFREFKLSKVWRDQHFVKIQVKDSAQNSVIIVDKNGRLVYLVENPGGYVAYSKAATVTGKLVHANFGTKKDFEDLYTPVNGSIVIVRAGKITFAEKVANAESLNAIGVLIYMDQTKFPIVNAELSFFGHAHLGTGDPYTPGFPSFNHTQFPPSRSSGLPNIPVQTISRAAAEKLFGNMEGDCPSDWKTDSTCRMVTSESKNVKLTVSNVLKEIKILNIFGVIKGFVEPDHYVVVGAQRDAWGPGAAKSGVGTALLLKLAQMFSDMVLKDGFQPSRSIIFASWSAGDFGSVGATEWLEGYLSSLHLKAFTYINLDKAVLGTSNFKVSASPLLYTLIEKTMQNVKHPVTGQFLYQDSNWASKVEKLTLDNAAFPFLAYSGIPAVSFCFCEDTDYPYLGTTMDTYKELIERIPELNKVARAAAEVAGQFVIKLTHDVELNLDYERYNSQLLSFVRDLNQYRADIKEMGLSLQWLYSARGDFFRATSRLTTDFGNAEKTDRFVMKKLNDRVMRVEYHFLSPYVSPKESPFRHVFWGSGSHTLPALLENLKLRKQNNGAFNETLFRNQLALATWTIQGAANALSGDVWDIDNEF
Method: (§1) TfR1 ELISA. Nunc MaxiSorp plates were coated with 100 ul of 1 μg/ml of in-house purified recombinant human, cynomolgus TfR1 or HSA and incubated at 4° C. overnight. Plates were incubated with blocking buffer (2.5% non-fat dry milk in PBST) for 1 hr at RT. Serial dilutions of TXP1, TXPID1 or TXP1D4 were mixed with non-fat dry milk in PBST to a final concentration of 2.5% and incubated for 30 min. Blocked VNAR antibody solutions (100 μl) were transferred to the blocked plates and incubated for 1 hr. Plates were washed with PBST and incubated with anti-hFc HRP-conjugated antibody diluted 1:5,000 (Sigma) in blocking buffer for 30 min. Plates were washed and developed with SureBlue TMB substrate. Were indicated the velocity of colorimetric reaction development was measured in the kinetic mode at 370 nm and the maximum peak was used for quantitation (Vmax at 370 nm). Alternatively, the TMB reaction was stopped with 1% HCl and absorbance was measured at 450 nm (OD at 450 nm).

[3] = target: T3, cell surface human TfR1 on hCMEC/D3 and SH-SY5Y cells (human, UniProt P02786 1-760); test: flow cytometry on hCMEC/D3 cells on ice, binding to cell surface TfR1, anti-hFc Alexa647
T3 construct: whole, on cells; Endogenous receptor on the cell lines; also called cell surface TfR1; cell-surface hTfR1
T3 sequence (P02786 whole entry): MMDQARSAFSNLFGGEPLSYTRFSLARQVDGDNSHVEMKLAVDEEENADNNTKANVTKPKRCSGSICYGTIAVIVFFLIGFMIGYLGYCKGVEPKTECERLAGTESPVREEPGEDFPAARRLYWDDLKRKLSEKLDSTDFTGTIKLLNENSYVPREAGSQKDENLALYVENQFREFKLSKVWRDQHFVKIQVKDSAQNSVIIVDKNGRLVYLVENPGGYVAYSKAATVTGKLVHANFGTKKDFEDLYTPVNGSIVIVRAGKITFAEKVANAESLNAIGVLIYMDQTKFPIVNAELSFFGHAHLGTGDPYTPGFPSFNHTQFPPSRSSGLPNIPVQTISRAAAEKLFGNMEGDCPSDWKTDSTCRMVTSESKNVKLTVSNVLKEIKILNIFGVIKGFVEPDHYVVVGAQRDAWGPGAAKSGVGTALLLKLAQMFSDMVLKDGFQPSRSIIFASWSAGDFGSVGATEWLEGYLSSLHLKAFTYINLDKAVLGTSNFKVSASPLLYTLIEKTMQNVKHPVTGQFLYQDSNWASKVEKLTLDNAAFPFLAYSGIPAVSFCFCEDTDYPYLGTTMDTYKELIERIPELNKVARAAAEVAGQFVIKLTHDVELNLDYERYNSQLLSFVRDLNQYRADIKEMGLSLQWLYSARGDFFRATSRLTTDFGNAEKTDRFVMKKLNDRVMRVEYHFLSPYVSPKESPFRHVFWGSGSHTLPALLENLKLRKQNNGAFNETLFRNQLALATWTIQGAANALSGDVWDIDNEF
Method: Functional activity of the fully deimmunized variants was assessed using the hCMEC/D3 human endothelial cell line and the SY-SH5Y human neuronal cell line. Binding to hCMEC/D3 cells was assessed by incubation with serial antibody dilutions for 1h on ice to avoid internalization. The cells were fixed and binding to cell surface TfR1 was measured by flow cytometry. […] Internalization via cell-surface hTfR1 was assessed using the hCMEC/D3 and SY-SH5Y cell lines by incubation with the antibodies for 1 hour at 37° C.
Flow cytometry. hCMEC/D3 cells were seeded onto V-bottom 96-well plates at a density of 1×10⁴ cells/well. All incubations were carried out on ice to prevent internalization. After blocking in PBS containing 10% BSA (FACS buffer), cells were incubated with serial dilutions of TXP1. Cells were stained with propidium iodine (PI; Biolegend) for 20 min, followed by anti-hFc conjugated to Alexa647 diluted 1:300 (Jackson ImmunoResearch) for 30 min. After fixation in 4% PFA for 15 min, the cells were analyzed on a CytoFlex flow cytometer (Beckman Coulter). Gating of cells stained with secondary antibody alone was used to set the negative threshold for and the fluorescence intensity of approximately 1000 cells per condition was measured. EC50 values were calculated using a four parametric non-linear regression model.

[4] = target: T1, recombinant cynomolgus TfR-1; test: SPR Biacore T200, His-tagged TfR-1 captured by anti-His, single cycle kinetics, 1:1 model
Method: (§2) Binding kinetics. Binding kinetics of TXP1 and A06 VNAR antibodies were determined by surface plasmon resonance (SPR) using a Biacore T200 (GE Healthcare). A His-capture kit (GE Healthcare) was used to immobilize anti-His antibodies on CM5 chips (as recommended by the manufacturer). His-tagged recombinant cynomolgus and human TfR-1 in 0.1% BSA in HBS-EP+ buffer (GE Healthcare) was captured at flow rate 10 μl/min. Analyte binding was measured using the single cycle kinetic SPR method on a Biacore T200. Analytes were injected at increasing concentrations (0.98, 3.9, 15.6, 62.5 and 250 nM) in HBS-EP+ at flow rate 30 μl/min. A flow cell without TfR-1 captured served as a reference. The chips were regenerated in 10 mM glycine-HCl, pH 1.5. Sensorgrams were fitted using 1:1 binding model and kinetic constants determined using Biacore T200 Evaluation software (GE Healthcare). Association and dissociation were measured for 360s and 1500s respectively, with flow rate at […].

recombinant human TfR-1 [5] = target: T2, recombinant human TfR-1; test: as above
Method: as §2

recombinant human TfR-1 [6] = target: T2, recombinant human TfR-1; test: SPR Biacore T200, His-tagged TfR1 captured by anti-His, multi-cycle kinetics, 1:1 model
Method: Binding kinetics. Binding kinetics of TXP1, TXP1D1 and TXP1D4 were determined by surface plasmon resonance (SPR) using a Biacore T200 (GE Healthcare). A His-capture kit (GE Healthcare) was used to immobilize anti-His antibodies on CM5 chips (as recommended by the manufacturer). His-tagged recombinant hTfR1 in 0.1% BSA in HBS-EP+ buffer (GE Healthcare) was captured at flow rate 10 μl/min. Analyte binding was measured using the multi-cycle kinetic SPR method. Starting analyte concentrations at 400 nM and serially diluted in 1:4 in seven steps. Association and dissociation were measured for 360s and 1500s respectively, with flow rate at 30 μl/min. The chips were regenerated in 10 mM Glycine-HCl, pH 1.5. Sensorgrams were fitted using 1:1 binding model and kinetic constants determined using Biacore T200 Evaluation software (Cytiva).

HSA = target: T4, HSA (human, UniProt P02768 25-609); test: ELISA, plate-coated HSA as negative control, anti-hFc HRP detection
T4 construct: also called human serum albumin (negative control)
T4 sequence (P02768 25-609 limits assumed): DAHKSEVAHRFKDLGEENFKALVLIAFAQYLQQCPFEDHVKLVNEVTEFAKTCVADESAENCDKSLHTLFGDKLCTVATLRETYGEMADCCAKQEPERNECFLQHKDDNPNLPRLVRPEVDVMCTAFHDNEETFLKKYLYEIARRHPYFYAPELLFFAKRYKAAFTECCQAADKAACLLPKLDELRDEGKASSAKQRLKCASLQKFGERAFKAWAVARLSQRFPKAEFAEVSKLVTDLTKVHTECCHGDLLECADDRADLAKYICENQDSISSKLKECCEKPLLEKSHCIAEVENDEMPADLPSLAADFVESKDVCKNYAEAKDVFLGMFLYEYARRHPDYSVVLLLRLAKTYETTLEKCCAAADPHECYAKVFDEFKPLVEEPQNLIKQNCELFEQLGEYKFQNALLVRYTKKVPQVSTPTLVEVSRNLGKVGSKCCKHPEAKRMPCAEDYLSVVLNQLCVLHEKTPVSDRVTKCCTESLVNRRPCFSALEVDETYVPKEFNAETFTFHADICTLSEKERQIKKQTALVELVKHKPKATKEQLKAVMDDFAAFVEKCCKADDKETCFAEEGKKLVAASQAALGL

[7] = target: T1, recombinant cynomolgus TfR-1; test: ELISA, plate-coated recombinant cTfR1, anti-hFc HRP detection
Method: as §1

recombinant rat TfR-1 = target: T5, recombinant rat TfR-1 (rat, UniProt Q99376 87-761, limits assumed); test: ELISA, plate-coated recombinant TfR-1, anti-hFc HRP detection
T5 construct: also called rTfR-1
T5 sequence (Q99376 87-761 limits assumed): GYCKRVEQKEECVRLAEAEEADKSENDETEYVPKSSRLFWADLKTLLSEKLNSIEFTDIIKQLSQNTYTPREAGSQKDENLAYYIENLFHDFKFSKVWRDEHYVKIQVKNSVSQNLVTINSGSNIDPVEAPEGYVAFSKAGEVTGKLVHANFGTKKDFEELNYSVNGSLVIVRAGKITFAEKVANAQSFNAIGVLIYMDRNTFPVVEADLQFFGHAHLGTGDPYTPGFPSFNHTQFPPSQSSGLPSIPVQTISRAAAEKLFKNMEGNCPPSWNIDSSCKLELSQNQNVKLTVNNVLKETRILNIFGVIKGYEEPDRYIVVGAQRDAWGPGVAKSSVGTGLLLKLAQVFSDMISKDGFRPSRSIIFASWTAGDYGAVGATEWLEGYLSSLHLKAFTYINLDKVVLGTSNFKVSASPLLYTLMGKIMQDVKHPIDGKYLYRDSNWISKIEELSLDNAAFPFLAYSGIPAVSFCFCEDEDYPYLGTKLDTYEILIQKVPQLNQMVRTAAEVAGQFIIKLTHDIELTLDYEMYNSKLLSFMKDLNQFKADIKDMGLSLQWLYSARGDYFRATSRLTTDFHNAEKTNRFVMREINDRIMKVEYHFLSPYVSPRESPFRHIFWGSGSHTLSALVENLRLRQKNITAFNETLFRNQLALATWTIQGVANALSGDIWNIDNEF
Method: (§3) TfR-1 binding ELISA. Nunc MaxiSorp plates were coated with 100 μl of 1 μg/ml of in-house purified recombinant human, mouse, rat and cynomolgus TfR-1 and incubated at 4° C. overnight. Plates were incubated with blocking buffer (2.5% non-fat dry milk in PBST) for 1 h at RT. Serially-diluted TXP1 was mixed with non-fat dry milk in PBST to a final concentration of 2.5% and incubated for 30 min. Blocked TXP1 solutions (100 μl) were transferred to the blocked plates and incubated for 1 hr. Plates were washed with PBST and incubated with anti-hFc HRP-conjugated antibody diluted 1:5,000 (Sigma) in blocking buffer for 30 min. Plates were washed and developed with SureBlue™ TMB substrate, the reaction stopped with 1% HCl and absorbance measured at 450 nm.

recombinant mouse TfR-1 = target: T6, recombinant mouse TfR-1 (mouse, UniProt Q62351 89-763, limits assumed); test: as above
T6 construct: also called mTfR-1
T6 sequence (Q62351 89-763 limits assumed): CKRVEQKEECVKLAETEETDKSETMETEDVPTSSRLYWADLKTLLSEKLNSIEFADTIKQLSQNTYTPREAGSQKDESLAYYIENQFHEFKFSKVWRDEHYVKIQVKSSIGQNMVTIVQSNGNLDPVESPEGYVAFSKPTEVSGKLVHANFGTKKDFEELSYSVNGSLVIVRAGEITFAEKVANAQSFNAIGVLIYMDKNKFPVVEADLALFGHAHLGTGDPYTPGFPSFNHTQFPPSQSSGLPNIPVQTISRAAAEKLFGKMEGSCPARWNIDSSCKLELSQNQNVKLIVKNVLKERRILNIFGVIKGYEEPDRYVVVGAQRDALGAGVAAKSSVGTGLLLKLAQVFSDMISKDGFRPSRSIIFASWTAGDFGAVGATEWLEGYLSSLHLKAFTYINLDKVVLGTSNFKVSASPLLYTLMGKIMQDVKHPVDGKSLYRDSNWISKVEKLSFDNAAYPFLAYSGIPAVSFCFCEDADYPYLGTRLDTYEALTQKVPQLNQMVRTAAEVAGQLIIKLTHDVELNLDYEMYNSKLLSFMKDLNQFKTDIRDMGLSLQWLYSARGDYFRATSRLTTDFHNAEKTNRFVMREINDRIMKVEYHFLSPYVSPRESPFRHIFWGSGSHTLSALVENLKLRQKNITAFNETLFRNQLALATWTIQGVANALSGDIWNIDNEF
Method: as §3

[8] = target: T1, recombinant cynomolgus TfR-1; test: as above
Method: as §3

recombinant human TfR-1 [9] = target: T2, recombinant human TfR-1; test: as above
Method: as §3

recombinant human TfR-1 [10] = target: T2, recombinant human TfR-1; test: ELISA on coated hTfR1, crude ExpiHEK expression media, normalised to TXP1
Method: FIG. 6. Expression level and hTfR1 binding of 20 single-region variants of TXP1 measured by ELISA. Variants were designed to remove potential MHCII binding motifs in each region separately with the mutations described in Table 5. Each deimmunized variant was transiently expressed in 0.5 ml scale in ExpiHEK cells and the crude media were tested by ELISA for hTfRIbinding and expression level in comparison to parental TXP1. The data were normalized to TXP1 and the variants with binding or expression >0.5-fold were evaluated further.
Mutating the primary anchoring residue in each MHCII binding motif was prioritized to minimize manipulation of the sequence with maximal reduction in binding score. Alternative positions were also considered when replacement of an anchor residue might disrupt the protein structure or where removing the anchor residue was insufficient to eliminate MHCII binding. Based on the in silico analyses, 20 single-region deimmunized variants of TXP1 (6 in region 1, 10 in region 2, and 4 in region 3) were genetically synthesized and evaluated (Table 5). Expression and hTfR1 binding were measured in crude media from transfected ExpiHEK cells (FIG. 6). […] Region 3 required all three substitutions to eliminate predicted MHCII binding, and all three mutations individually and when combined (TXP1-R3-1-4) were expressed well and retained parental levels of TfR-1 binding.

T1 sequence (chain, as listed by the source): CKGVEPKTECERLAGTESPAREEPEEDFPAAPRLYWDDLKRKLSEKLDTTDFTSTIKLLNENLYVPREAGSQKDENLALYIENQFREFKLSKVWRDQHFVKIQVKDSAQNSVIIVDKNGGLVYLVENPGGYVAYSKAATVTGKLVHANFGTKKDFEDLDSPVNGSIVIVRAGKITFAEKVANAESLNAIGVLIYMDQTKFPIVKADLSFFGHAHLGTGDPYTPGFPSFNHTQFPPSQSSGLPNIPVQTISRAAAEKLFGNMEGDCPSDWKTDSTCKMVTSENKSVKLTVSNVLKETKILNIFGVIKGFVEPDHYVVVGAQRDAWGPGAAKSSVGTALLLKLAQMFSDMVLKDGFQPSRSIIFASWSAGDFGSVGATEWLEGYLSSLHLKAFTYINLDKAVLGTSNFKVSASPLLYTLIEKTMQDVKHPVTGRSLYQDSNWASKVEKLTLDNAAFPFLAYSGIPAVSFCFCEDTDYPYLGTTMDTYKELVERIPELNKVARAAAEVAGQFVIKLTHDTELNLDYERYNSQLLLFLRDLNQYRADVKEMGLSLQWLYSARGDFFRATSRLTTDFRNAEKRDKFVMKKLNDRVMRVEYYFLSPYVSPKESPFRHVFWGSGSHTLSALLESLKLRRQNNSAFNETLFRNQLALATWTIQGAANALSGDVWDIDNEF

Kd [1]: 1.8 nM
koff [1]: 9.6e-05 s⁻¹
kon [1]: 53000 M⁻¹ s⁻¹
EC50 (recombinant human TfR-1 [2]): 1.9 nM
EC50 [3]: 2.2 nM
Kd [4]: 3.14 nM
koff [4]: 0.000365 s⁻¹
kon [4]: 116000 M⁻¹ s⁻¹
Kd (recombinant human TfR-1 [5]): 1.03 nM
koff (recombinant human TfR-1 [5]): 0.000134 s⁻¹
kon (recombinant human TfR-1 [5]): 129000 M⁻¹ s⁻¹
Kd (recombinant human TfR-1 [6]): 5.1 nM
koff (recombinant human TfR-1 [6]): 0.00027 s⁻¹
kon (recombinant human TfR-1 [6]): 54000 M⁻¹ s⁻¹
binding result (HSA): no binding
EC50 [7]: 1.4 nM
binding result (recombinant rat TfR-1): no binding
binding result (recombinant mouse TfR-1): no binding
EC50 [8]: 1.6 nM
EC50 (recombinant human TfR-1 [9]): 1.5 nM
B1: TXP1 (Fc fusion)
chain: ARVDQTPQTITKETGESLTINCVLRDSNCALSSTYWYRKKSGSTNEENISKGGRYVETVNSGSKSFSLKINDLTVEDSGTYRCNVVGTWCMSWRDVYGGGTAVTVNA
notes: Bivalent VNAR-hFc; VNAR at the N-terminus of hFc IgG1; also called VNAR-hFc named TXP1; parental TXP1; not shown: human IgG1 Fc domain (hFc) with attenuated effector function mutations E233P/L234V/L235A/AG236 (deletion of G236)+A327G/

hTfR1 binding relative to parental TXP1 (fold) (recombinant human TfR-1 [10]): 0.5 fold
B2: TXP1-R1-4 (Fc fusion)
chain: B1 chain with I10T
notes: Single-region variant of TXP1; tested in crude expression media; not shown: human IgG1 Fc (hFc) with AEF mutations incl. deletion of G236 (printed AG236)

hTfR1 binding relative to parental TXP1 (fold) (recombinant human TfR-1 [10]): 0.5 fold
B3: TXP1-R1-3 (Fc fusion)
chain: B1 chain with I10S
notes: as for B2

Kd [1]: 2.2 nM
koff [1]: 0.00016 s⁻¹
kon [1]: 73000 M⁻¹ s⁻¹
EC50 (recombinant human TfR-1 [2]): 3.5 nM
EC50 [3]: 1.6 nM
Kd (recombinant human TfR-1 [6]): 4.6 nM
koff (recombinant human TfR-1 [6]): 0.00031 s⁻¹
kon (recombinant human TfR-1 [6]): 67000 M⁻¹ s⁻¹
EC50 [7]: 2.2 nM
B4: TXP1D1 (Fc fusion)
chain: B1 chain with I10A, N60D, S63T, Y97S, G99D, A102V
notes: Fully deimmunized variant of TXP1, VNAR-hFc format; also called TXPID1; not shown: human IgG1 Fc (hFc) with AEF mutations incl. deletion of G236 (printed AG236)

hTfR1 binding relative to parental TXP1 (fold) (recombinant human TfR-1 [10]): 0.5 fold
B5: TXP1-R2-9 (Fc fusion)
chain: B1 chain with R54K, N60E
notes: as for B2

hTfR1 binding relative to parental TXP1 (fold) (recombinant human TfR-1 [10]): 0.5 fold
B6: TXP1-R2-3 (Fc fusion)
chain: B1 chain with Y55N
notes: as for B2

hTfR1 binding relative to parental TXP1 (fold) (recombinant human TfR-1 [10]): 0.5 fold
B7: TXP1-R2-10 (Fc fusion)
chain: B1 chain with R54K, N60Q
notes: as for B2

hTfR1 binding relative to parental TXP1 (fold) (recombinant human TfR-1 [10]): 0.5 fold
B8: TXP1-R1-1 (Fc fusion)
chain: B1 chain with I10A
notes: as for B2

hTfR1 binding relative to parental TXP1 (fold) (recombinant human TfR-1 [10]): 0.5 fold
B9: TXP1-R2-2 (Fc fusion)
chain: B1 chain with Y55H
notes: as for B2

hTfR1 binding relative to parental TXP1 (fold) (recombinant human TfR-1 [10]): 0.5 fold
B10: TXP1-R2-4 (Fc fusion)
chain: B1 chain with Y55S
notes: as for B2

hTfR1 binding relative to parental TXP1 (fold) (recombinant human TfR-1 [10]): 0.5 fold
B11: TXP1-R2-5 (Fc fusion)
chain: B1 chain with Y55T
notes: as for B2

hTfR1 binding relative to parental TXP1 (fold) (recombinant human TfR-1 [10]): 0.5 fold
B12: TXP1-R1-2 (Fc fusion)
chain: B1 chain with I10E
notes: as for B2

hTfR1 binding relative to parental TXP1 (fold) (recombinant human TfR-1 [10]): 0.5 fold
B13: TXP1-R2-6 (Fc fusion)
chain: B1 chain with N60D, S63T
notes: as for B2

Kd [1]: 1.7 nM
koff [1]: 0.00014 s⁻¹
kon [1]: 87000 M⁻¹ s⁻¹
EC50 (recombinant human TfR-1 [2]): 4.1 nM
EC50 [3]: 2.1 nM
Kd (recombinant human TfR-1 [6]): 3 nM
koff (recombinant human TfR-1 [6]): 0.00026 s⁻¹
kon (recombinant human TfR-1 [6]): 87000 M⁻¹ s⁻¹
EC50 [7]: 3 nM
B14: TXP1D4 (Fc fusion)
chain: B1 chain with I10A, R54K, N60E, Y97S, G99D, A102V
notes: Fully deimmunized variant of TXP1, VNAR-hFc format; also called TXPID4; not shown: human IgG1 Fc (hFc) with AEF mutations incl. deletion of G236 (printed AG236)
